B1: C1a: rat Kv2.1 C1a peptide, residues 411-522 of SEQ ID NO: 3, expressed from a plasmid (protein, listed as Rattus norvegicus)
chain: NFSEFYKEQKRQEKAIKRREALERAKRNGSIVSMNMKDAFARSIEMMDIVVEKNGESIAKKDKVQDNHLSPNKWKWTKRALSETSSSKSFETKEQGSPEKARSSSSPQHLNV
B2: C1a441-522: distal segment of C1a, residues 441-522 of rat Kv2.1 (protein, UniProt P15387 441-522, looked up, fragment)
chain: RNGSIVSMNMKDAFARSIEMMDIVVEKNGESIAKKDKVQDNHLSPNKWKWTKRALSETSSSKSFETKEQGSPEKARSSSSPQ

Legend:
Kv2.1/syntaxin binding = target: T1, Kv2.1/syntaxin binding (Homo sapiens, UniProt Q16623); test: Co-immunoprecipitation of Kv2.1 with syntaxin from transfected CHO cells; assay type: cell-based; details: for effect on Kv2.1/syntaxin binding (co-immunoprecipitation): syntaxin-expressing CHO cells co-transfected with Kv2.1 and peptide plasmid, syntaxin immunoprecipitates probed for Kv2.1
T1 construct: expressed in transfected cells; host or cells: CHO cells
T1 sequence (Q16623 whole entry): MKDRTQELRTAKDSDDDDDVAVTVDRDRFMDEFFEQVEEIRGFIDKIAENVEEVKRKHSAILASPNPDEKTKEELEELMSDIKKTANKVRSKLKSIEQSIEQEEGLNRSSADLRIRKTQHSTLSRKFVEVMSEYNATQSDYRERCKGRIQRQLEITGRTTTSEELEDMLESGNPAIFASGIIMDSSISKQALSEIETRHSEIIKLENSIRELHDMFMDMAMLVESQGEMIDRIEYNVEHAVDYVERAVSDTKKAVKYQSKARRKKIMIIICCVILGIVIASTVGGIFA
Method: For electrophysiological experiments, mixed cortical neuronal/glial cultures were prepared from embryonic day 16 (E16) Sprague-Dawley rats (Charles River Laboratories, Wilmington, Mass., USA). Donor rats were euthanized by gradual CO2 exposure. Cortices were dissociated with trypsin, and the resultant cell suspension, adjusted to 670,000 cells per well, was plated on glass coverslips in 6-well plates as described previously (Hartnett et al., J Neurochem 68, 1836-1845, 1997). Non-neuronal cell proliferation was inhibited after two weeks in culture with 1-2 μM cytosine arabinoside, and cultures utilized at three to four weeks in vitro. For neuronal transfection, cells were treated for five hours in serum-free medium with 2 μL LIPOFECTAMINE™ 2000 (Invitrogen, Carlsbad, Calif.), 50 μL Optimem (GIBCO, Grand Island, N.Y.), and 1.5 μg DNA per well. For CHO cell transfections, cells were plated on coverslips in 24-well plates at a density of 5.6×10^4 cells per well for electrophysiological measurements or in 100 mm dishes at a density of 1.7×10^6 cells per dish for biochemical studies. Cells were treated for 3-4 hours in serum-free medium with a total of 1.2 μL LIPOFECTAMINE™ and 0.28 μg DNA per well for electrophysiology, or 55.1 μL LIPOFECTAMINE™ and 7.33 μg DNA per dish for biochemistry. Following transfection, cells were maintained in F12 medium containing fetal bovine serum at 37° C., 5% CO2 for 24 hours prior to experimentation.
Protein was harvested by washing cell culture dishes with ice cold PBS followed by a short incubation with 1% 3-[(3-cholamidopropyl) dimethylammonio]-1-propanesulfonate buffer. Protein A/G agarose bead slurry (Santa Cruz, Dallas, Tex.) was added to the samples and rocked at 4° C. for 1 hour in order to pre-clear non-specific protein binding. Samples were then incubated overnight at 4° C. with the appropriate immunoprecipitating antibodies. Following another incubation with the bead slurry, the protein samples were prepared/denatured by the addition of sample preparation buffer (625 mM Tris, 25% glycerol, 2% sodium dodecyl sulfate (SDS), 0.01% bromophenol blue and 5% β-mercaptoethanol) and heated at 95° C. for 5 min prior to SDS polyacrylamide gel electrophoresis and immunoblotting.
Protein samples from equal amounts of cell lysate were separated on 10% sodium dodecyl sulfate SDS polyacrylamide gels by electrophoresis using the Mini Protean 3 System (Bio-Rad, Hercules, Calif.). Separated protein bands were transferred onto 0.2 μm nitrocellulose membranes (Bio-Rad), blocked with 1% bovine serum albumin (BSA) in PBS with 0.05% Tween 20 (PBST) at room temperature for 1 hour, and probed with appropriate primary antibodies diluted in PBST. Blots were then incubated with infrared fluorescent goat secondary antibodies at room temperature for 1 hour, visualized using the Odyssey Imaging System (LI-COR Biosciences, Lincoln, Nebr.), and quantified using infrared fluorimetry.
After establishing that C1a effectively precluded the oxidant-induced K^+ current increase in neurons, studies were performed to identify the sub-domains within C1a that could retain the ability to disrupt Kv2.1/syntaxin binding. C1a was divided into overlapping proximal and distal segments, hereafter referred to as C1a411-472 and C1a441-522, respectively. Co-immunoprecipitation experiments were performed to compare the ability of C1a and the smaller segments to displace Kv2.1 from syntaxin. Syntaxin immunoprecipitates of protein samples obtained from CHO cells transfected with a syntaxin-expressing plasmid, and co-transfected with Kv2.1 together with C1a, C1a411-472, or C1a441-522, were probed for Kv2.1.

Kv2.1S800E = test: Whole-cell K+ current densities in CHO cells expressing Kv2.1S800E; assay type: cell-based; details: CHO cells co-transfected with Kv2.1S800E and peptide plasmid
Method: For electrophysiological experiments, mixed cortical neuronal/glial cultures were prepared from embryonic day 16 (E16) Sprague-Dawley rats (Charles River Laboratories, Wilmington, Mass., USA). Donor rats were euthanized by gradual CO2 exposure. Cortices were dissociated with trypsin, and the resultant cell suspension, adjusted to 670,000 cells per well, was plated on glass coverslips in 6-well plates as described previously (Hartnett et al., J Neurochem 68, 1836-1845, 1997). Non-neuronal cell proliferation was inhibited after two weeks in culture with 1-2 μM cytosine arabinoside, and cultures utilized at three to four weeks in vitro. […]
Current recordings were performed on eGFP-positive co-transfected neurons or CHO cells using the whole-cell patch clamp configuration technique as described previously (McLaughlin et al., J Neurosci 21, 3303-3311, 2001). […] To determine current density values, steady-state current amplitudes were measured 180 msec after the initiation of the +10 mV step and normalized to cell capacitance. […] By repeatedly adjusting the scaling factor k, an automated binary search algorithm determined threshold synaptic conductance (thresh-gsyn), the conductance required to reach firing threshold (Kullmann et al., J Neurophysiol 91, 542-54, 2004). […]

| Molecule | effect on Kv2.1/syntaxin binding (co-immunoprecipitation) (Kv2.1/syntaxin binding) | effect on enhanced K+ currents of Kv2.1S800E (Kv2.1S800E) | ability to displace Kv2.1 from syntaxin with Src kinase overexpression (Kv2.1/syntaxin binding; CHO cells co-transfected with Kv2.1 and Src) |
| --- | --- | --- | --- |
| B1 | inhibited Kv2.1/syntaxin binding | suppressed the enhanced K^+ currents |  |
| B2 | inhibited Kv2.1/syntaxin binding | blocked the increase in currents | retained the ability to displace Kv2.1 from syntaxin |

From patent US9932382B2, “Kv2.1 channel-derived peptides and methods of use” (University of Pittsburgh—Of the Commonwealth System of …, priority 2014, dated 2018)
